± gives the standard deviation of the averaged measurements.
Legend:
Saccharomyces cerevisiae [1] = assay: protein stability index of tFT-peptide fusion (C-terminal peptide) (PSI (0-1 scale)); higher = more stable (slower turnover)
Protocol: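 MPS profiling in S. cerevisiae of the tFT-X12 degron library: putative degron peptides plus stable controls, 12 aa, fused to the C-terminus of a sfGFP-mCherry timer. Cells are FACS-sorted into 8 mCherry/sfGFP bins and deep-sequenced. PSI runs from 0 (unstable) to 1 (stable). Backgrounds are wild type, das1Δ and doa10Δ at 30 °C, and wild type, das1Δ, cdc34-1 and cdc53-1 at 37 °C; 2-3 technical replicates each.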

Saccharomyces cerevisiae [2] = assay: as above; conditions: genetic background: wild type; temperature: 30 C
[3] = genetic background: cdc34-1, temperature: 37 C
[4] = genetic background: cdc53-1, temperature: 37 C
[5] = genetic background: das1 deletion, temperature: 30 C
[6] = genetic background: das1 deletion, temperature: 37 C
[7] = genetic background: doa10 deletion, temperature: 30 C
[8] = genetic background: wild type, temperature: 30 C
[9] = genetic background: wild type, temperature: 37 C
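Further: PSI is a weighted mean of sequencing reads over stability bins, variants kept only with over 10 reads, mCherry proximal and sfGFP distal, peptide attached via GGGS linker.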

| Sequence | protein stability index (Saccharomyces cerevisiae [1]; [3]) | protein stability index (Saccharomyces cerevisiae [1]; [4]) | protein stability index (Saccharomyces cerevisiae [1]; [5]) | protein stability index (Saccharomyces cerevisiae [1]; [6]) | protein stability index (Saccharomyces cerevisiae [1]; [7]) | protein stability index (Saccharomyces cerevisiae [1]; [8]) | protein stability index (Saccharomyces cerevisiae [1]; [9]) | protein stability index (Saccharomyces cerevisiae [2]) |
| --- | --- | --- | --- | --- | --- | --- | --- | --- |
| VMIFYVLGRVWD | 0.428 ± 0.0048 | 0.5209 ± 0.0028 | 0.293 ± 0.056 | 0.594 ± 0.025 | 0.27 ± 0.0079 | 0.314 ± 0.033 | 0.581 ± 0.082 | 0.455 ± 0.0091 |
| VGASLVVIAIGV | 0.5122 ± 0.0012 | 0.5401 ± 0.0048 | 0.377 ± 0.034 | 0.5445 ± 0.0033 | 0.3442 ± 0.0029 | 0.387 ± 0.012 | 0.5181 ± 0.0048 | 0.466 ± 0.032 |
| LVCSLLVPSSFF | 0.679 ± 0.0081 | 0.7 ± 0.074 | 0.634 ± 0.016 | 0.722 ± 0.0063 | 0.667 ± 0.035 | 0.645 ± 0.011 | 0.7039 ± 0.0056 | – |
| CVVFLWCGGCWV | 0.475 ± 0.013 | 0.584 ± 0.0059 | 0.346 ± 0.044 | 0.725 ± 0.085 | 0.344 ± 0.023 | 0.331 ± 0.03 | 0.734 ± 0.041 | 0.503 ± 0.076 |
| FGFFDIKLPVVA | 0.515 ± 0.037 | 0.51 ± 0.022 | 0.38 ± 0.024 | 0.5539 ± 0.0013 | 0.345 ± 0.012 | 0.373 ± 0.041 | 0.518 ± 0.017 | 0.486 ± 0.018 |
| AWVLISNRRRIM | 0.62 ± 0.071 | 0.747 ± 0.011 | 0.648 ± 0.033 | 0.745 ± 0.025 | 0.187 ± 0.0092 | 0.216 ± 0.029 | 0.502 ± 0.095 | 0.262 ± 0.065 |
| SVRGGSFLVHLC | 0.614 ± 0.096 | 0.758 ± 0.011 | 0.636 ± 0.018 | 0.7525 ± 0.0012 | 0.154 ± 0.017 | 0.168 ± 0.015 | 0.337 ± 0.015 | 0.337 ± 0.043 |
| DRQMRCVHIHYL | 0.647 ± 0.041 | 0.715 ± 0.028 | 0.646 ± 0.029 | 0.697 ± 0.011 | 0.275 ± 0.016 | 0.301 ± 0.015 | 0.532 ± 0.0088 | 0.412 ± 0.021 |
| GFALGSFMLVLR | 0.0226 ± 0.0077 | 0.0469 ± 0.019 | 0.0861 ± 0.012 | 0.0844 ± 0.0018 | 0.596 ± 0.037 | 0.0702 ± 0.012 | 0.0617 ± 0.0078 | 0.0977 ± 0.0089 |
| LVHLVLYVAVFC | 0.317 ± 0.043 | 0.4112 ± 0.0015 | 0.292 ± 0.048 | 0.409 ± 0.0046 | 0.2877 ± 0.0014 | 0.309 ± 0.013 | 0.398 ± 0.0049 | 0.283 ± 0.074 |
| VVLVGVAVCRLG | 0.4 ± 0.0065 | 0.47 ± 0.013 | 0.29 ± 0.025 | 0.4888 ± 0.0021 | 0.244 ± 0.01 | 0.277 ± 0.014 | 0.46 ± 0.0018 | 0.368 ± 0.011 |
| QRAVGLANFTIK | 0.672 ± 0.065 | 0.7512 ± 0.0062 | 0.647 ± 0.043 | 0.7328 ± 0.0028 | 0.646 ± 0.048 | 0.669 ± 0.032 | 0.709 ± 0.018 | – |
| PPPPPPPAPASP | – | – | 0.665 ± 0.13 | 0.68 ± 0.048 | 0.553 ± 0.17 | 0.635 ± 0.089 | 0.629 ± 0.032 | – |
| APPSRRLTLRLA | 0.577 ± 0.039 | 0.696 ± 0.019 | 0.6614 ± 0.0066 | 0.709 ± 0.017 | 0.142 ± 0.003 | 0.145 ± 0.0058 | 0.32 ± 0.044 | – |
| RPPPYSPRLFHN | 0.469 ± 0.0049 | 0.706 ± 0.031 | 0.67 ± 0.031 | 0.75 ± 0.01 | 0.0941 ± 0.065 | 0.129 ± 0.023 | 0.179 ± 0.067 | – |
| GPPVPLSPPLSP | 0.701 ± 0.042 | 0.695 ± 0.045 | 0.35 ± 0.024 | 0.5534 ± 0.0029 | 0.33 ± 0.0094 | 0.341 ± 0.014 | 0.532 ± 0.039 | – |
| VFYWGGVLCGWG | 0.337 ± 0.035 | 0.502 ± 0.074 | 0.309 ± 0.03 | 0.514 ± 0.014 | 0.297 ± 0.019 | 0.326 ± 0.036 | 0.439 ± 0.027 | – |
| GGGWGGRWGRLC | 0.639 ± 0.047 | 0.754 ± 0.0091 | 0.6543 ± 0.0029 | 0.75462 ± 8e-05 | 0.193 ± 0.021 | 0.218 ± 0.035 | 0.479 ± 0.0076 | – |
| APPRLPLLSCSQ | 0.652 ± 0.021 | 0.712 ± 0.0095 | 0.661 ± 0.05 | 0.6939 ± 0.00016 | 0.684 ± 0.045 | 0.642 ± 0.044 | 0.699 ± 0.014 | – |
